We go through 11 molecules from patent publication US20230192860A1 (Bristol-Myers Squibb, published 2023).

Assay [1] deals with T1, hVISTA-ECD 6-His tag (human, UniProt Q9H7M9 33-193).
T1 construct: also called monovalent hVISTA-ECD; human VISTA
The assay can be described thus: SPR, Ab on Protein A, hVISTA analyte, pH 6.9. A digest of the protocol: (§1)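 Antibodies at 50 nM in PBST pH 7.4 were captured on a Protein A CM5 chip; an 8-point human VISTA titration (100 to 7.8 nM) in PBST at pH 7.4, 6.9, 6.45 or 6.0 was injected for 180 seconds at 30 µL/min. Kinetic constants came from 1:1 binding fits of sensorgrams.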
In general terms: In SPR one partner is held on a chip, and binding of the other changes the refractive index at the surface.

Assay [2] addresses T1, hVISTA-ECD 6-His tag. Briefly: SPR, Ab on Protein A, hVISTA analyte, pH 6.0.
Assay [3] deals with T1, hVISTA-ECD 6-His tag. The assay can be described thus: SPR, Ab on Protein A, hVISTA analyte, pH 6.45.
Assay [4] deals with T1, hVISTA-ECD 6-His tag. Briefly: SPR; KD at pH 6.9 over KD at pH 6.0 (head prints 7.4). Here is the method:
(§2) Further binding kinetic experiments were performed at various pHs on VISTA antibodies described herein by SPR as generally described in Example 9 above. Antibodies were normalized to 50 nM concentration in PBST pH 7.4 and captured on a Protein A CM5 chip (ID 4931) by injecting for 45 seconds at a 5 µL/min flow rate. An 8-point human VISTA titration ([…]) was prepared in PBST at pH 7.4, 6.9, 6.45, and 6.0. Titrations were injected over the captured antibodies for 180 seconds at 30 µL/min. Sensorgrams were fit to a 1:1 binding model in T200 evaluation software and the kinetic constants were reported.
(§3) Each table reports the data at one of the four tested pHs (7.4, 6.9, 6.45, and 6.0, respectively). The 8-point hVISTA titration used in these assays was chosen to provide increased confidence in kinetic values reported at neutral pH conditions. A relatively stringent cutoff for non-binding was applied in this assay. Certain progeny of P1-061029 antibody (P1-068757, ‘759, ‘765, ‘771, and ‘775) show no binding to hVISTA at micromolar concentrations at pH 7.4, while ‘761 and ‘767 show no binding to hVISTA at 100 nM at pH 7.4 but do show binding to hVISTA at micromolar concentrations.

Assay [5] has as its target T1, hVISTA-ECD 6-His tag. The assay can be described thus: SPR; kd at pH 6.9 over kd at pH 6.0 (head prints 7.4). Here is the method:
as §2, §3

Assay [6] has as its target T1, hVISTA-ECD 6-His tag. The assay can be described thus: SPR; KD at pH 6.45 over KD at pH 6.0 (head prints 7.4).
The target of assay [7] is T1, hVISTA-ECD 6-His tag. The assay can be described thus: SPR; kd at pH 6.45 over kd at pH 6.0 (head prints 7.4). The essentials: as §1
Assay [8] addresses T2, monovalent hVISTA-ECD (amino acids 32-193 of SEQ ID NO: 1 with a 7xHis tail) (human, UniProt Q9H7M9 33-193).
T2 construct: analyte of the SPR assays; also called huVISTA-His; human VISTA-ECD
The assay can be described thus: SPR 37C, Ab on Protein A, pH 6.0.

Assay [9] deals with T1, hVISTA-ECD 6-His tag. Briefly: SPR 37 C, Ab on Protein A, pH 6.0.
For assay [10], the target named is T1, hVISTA-ECD 6-His tag. The assay can be described thus: SPR 37 C, Ab on Protein A, pH 7.4.

Numbering of substitutions follows the chain as printed. Numbers in names are those of the source.

T2 sequence (Q9H7M9 other isoform, or with tags, fused parts or gaps limits assumed): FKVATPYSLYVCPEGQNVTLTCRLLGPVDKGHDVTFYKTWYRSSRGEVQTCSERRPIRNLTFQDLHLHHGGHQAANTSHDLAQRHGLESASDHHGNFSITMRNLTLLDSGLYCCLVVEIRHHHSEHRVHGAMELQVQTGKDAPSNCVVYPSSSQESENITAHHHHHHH
T1 sequence (Q9H7M9 other isoform, or with tags, fused parts or gaps limits assumed): as above

B1: P1-070914 (P1-068767_E30D_D52N) (antibody, human IgG1, kappa, V domains shown)
VH: EVQLVESGGGLVQPGKSLRLSCAASGFTLDDYAMHWVRQAPGKGLEWVSGINWNSENIGYADSVKGRFTISRDNAKNSLYLQMNSLRTEDTALYYCAKVPGYSGGWIDAEDDWGQGTMVTVSS
VL: not shown
notes: also called P1-070914-3
A word on the Kd: it is the constant that tells how readily two partners part at equilibrium. A lower Kd goes with higher affinity. The term koff denotes a measure of how fast the partners let go of each other. In general, kon refers to the rate constant with which the complex forms. Consider B1, for which the Kd in [1] came out at 230 nM; in assay [2], 11 nM; in assay [3], 46 nM. Besides, the koff in [1] amounted to 0.011 s⁻¹; in [2] it was 0.0024 s⁻¹; in assay [3], 0.0049 s⁻¹. Also, the figures for the kon in [1], in assay [2] and in assay [3] were 48000 M⁻¹ s⁻¹, 230000 M⁻¹ s⁻¹ and 110000 M⁻¹ s⁻¹, respectively. Besides, the “7.4 KD/ 6.0 KD” value in assay [4] amounted to 21.1; in assay [6] it was 4.3. The results for the “7.4 kd/ 6.0 kd” value in [5] and in [7] were 4.4 and 2, respectively.

B2: P1-070922 (P1-068767_E30D_E55A) (antibody, human IgG1, kappa, V domains shown)
VH: B1 VH with N52D, E56A
VL: not shown
notes: also called P1-070922-3
Turning to B2, the Kd in assay [1] was determined as 790 nM; in assay [2] it was 17 nM; in assay [3], 76 nM. Further, the koff in assay [1] came to 0.014 s⁻¹; in assay [2] it was 0.004 s⁻¹; in assay [3], 0.007 s⁻¹. Moreover, the kon in assay [1] amounted to 18000 M⁻¹ s⁻¹; in assay [2], 230000 M⁻¹ s⁻¹; in [3], 93000 M⁻¹ s⁻¹. The results for the “7.4 KD/ 6.0 KD” value in assay [4] and in assay [6] were 45.9 and 4.4, respectively. Moreover, the entries for the “7.4 kd/ 6.0 kd” value in [5] and in [7] were 3.4 and 1.7, respectively.

B3: P1-070916 (P1-068767_D52N_E55A) (antibody, human IgG1, kappa, V domains shown)
VH: B1 VH with D30E, E56A
VL: not shown
notes: also called P1-070916-6
In the case of B3, the Kd is 230 nM in assay [1], 6.5 nM in [2] and 35 nM in assay [3]. Besides, the values for the koff in assay [1], in assay [2] and in assay [3] were 0.0093 s⁻¹, 0.0019 s⁻¹ and 0.004 s⁻¹, respectively. Also, the kon came to 41000 M⁻¹ s⁻¹ in assay [1], 300000 M⁻¹ s⁻¹ in [2] and 120000 M⁻¹ s⁻¹ in assay [3]. For the same molecule, the “7.4 KD/ 6.0 KD” value in assay [4] came out at 35.1; in assay [6], 5.4. Also, the figures for the “7.4 kd/ 6.0 kd” value in assay [5] and in [7] were 4.8 and 2.1, respectively.

B4: P1-061520 (41F11 VK_A64G) (antibody, V domains shown)
VH: QVQLVESGGGLVKPGGSLRLSCAASGFTFSDYYMSWIRQAPGKGLEWVSYISNSGSPIYYADSVKGRFTISRDNAKNSLYLQMNSLRAEDTAVYYCARDLPGWYFDLWGRGTLVTVSS
VL: EIVLTQSPATLSLSPGERATLSCRASQSVSSYLAWYQQKPGQAPRLLIYDASNRATGIPARFSGSGSGTDFTLTISSLEPEDFAVYYCQQRNNWPRTFGQGTKVEIK
notes: also called P1-061520-21; VISTA.4.A64G
With B4, the Kd was 2.15 nM in [1], 16.8 nM in assay [2] and 5.69 nM in [3]. The values for the off-rate constant (koff) in assay [1], in [2] and in [3] were 0.00139 s⁻¹, 0.0323 s⁻¹ and 0.00554 s⁻¹, respectively. Besides, the kon in assay [1] was 646000 M⁻¹ s⁻¹; in assay [2] it was 1.93e+06 M⁻¹ s⁻¹; in [3] it was 975000 M⁻¹ s⁻¹. The “7.4 KD/ 6.0 KD” value in assay [4] was found to be 0.1; in assay [6], 0.3. The “7.4 kd/ 6.0 kd” value in assay [5] came to 0; in assay [7], 0.2.

B5: P1-070976 (41F11_VH_T28P_Y50W_S55E_D95H_L96E_P97E_Y100E; Vk_A64G) (antibody, V domains shown)
VH: B4 VH with T28P, Y50W, S56E, D99H, L100E, P101E, Y104E
VL: B4 VL
notes: They look like Kabat positions on the mature VH, but no numbering scheme is stated; also called P1-070976-11
Regarding B5, the Kd in assay [1] is 970 nM; in [2], 9.9 nM; in [3], 44 nM. Also, the off-rate constant (koff) in assay [1] came to 0.01 s⁻¹; in assay [2], 0.0023 s⁻¹; in assay [3], 0.0039 s⁻¹. Moreover, the kon in assay [1] came out at 11000 M⁻¹ s⁻¹; in [2], 240000 M⁻¹ s⁻¹; in assay [3], 90000 M⁻¹ s⁻¹. The “7.4 KD/ 6.0 KD” value in assay [4] was 98.2; in [6], 4.4. The “7.4 kd/ 6.0 kd” value in [5] amounted to 4.4; in assay [7], 1.7.

B6: P1-077875 (P1-068748 H31S H32Y) (antibody, V domains shown)
VH: QVQLVESGGGVVQPGRSLRLSCAASGFTFSSYAMHWVRQAPGKGLEWVAIIWYDGSNDDYADSVKGRFTISRDNSKNTLYLQMNSLRAEDTAVYYCARDSGFYDSYYFDYWGQGTLVTVSS
VL: EIVLTQSPATLSLSPGERATLSCRASQSVSSSYLAWYQQKPGQAPRLLIYDASNRATGIPARFSGSGSGTDFTLTISSLEPEDFATYYCQQYNSYPYTFGQGTKLEIK
Regarding B6, the “fold improvement of off-rate against the '748 antibody” value (shortened to “fold improvement of off-rate”) in [8] is at most 2 fold.

B7: P1-077865 (P1-068748 H31S) (antibody, V domains shown)
VH: B6 VH with Y32H
VL: B6 VL
For B7, the “fold improvement of off-rate” value in [8] is at most 2 fold.

B8: P1-077867 (P1-068748 H32Y) (antibody, V domains shown)
VH: B6 VH with S31H
VL: B6 VL
With B8, the “fold improvement of off-rate” value in [8] is at most 2 fold.

B9: P1-061015 (antibody, human IgG1, kappa, V domains shown)
VH: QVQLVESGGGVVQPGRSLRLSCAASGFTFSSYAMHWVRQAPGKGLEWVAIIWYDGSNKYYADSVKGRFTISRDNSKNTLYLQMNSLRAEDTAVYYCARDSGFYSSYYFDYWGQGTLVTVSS
VL: EIVLTQSPATLSLSPGERATLSCRASQSVSSSYLAWYQQKPGQAPRLLIYDASNRATGIPARFSGSGSGTDFTLTISSLEPEDFATYYCQQYNSYPYTFGQGTKLEIKR
notes: also called P1-061015.IgG1.3
Take B9: the Kd was 1.9 nM in assay [9]; 6.4 nM in assay [10]; 3.19 nM in [1]; 0.622 nM in assay [2]; 1.83 nM in assay [3]. Besides, the koff turned out to be 0.0016 s⁻¹ in [9]; 0.0022 s⁻¹ in assay [10]; 0.00133 s⁻¹ in [1]; 0.00154 s⁻¹ in [2]; 0.00147 s⁻¹ in assay [3]. Besides, the kon in assay [9] came to 830000 M⁻¹ s⁻¹; in assay [10] it was 340000 M⁻¹ s⁻¹; in assay [1], 417000 M⁻¹ s⁻¹; in [2] it was 2.47e+06 M⁻¹ s⁻¹; in [3], 803000 M⁻¹ s⁻¹. The “7.4 KD/ 6.0 KD” value in assay [4] was 5.1; in [6] it was 2.9. Also, the results for the “7.4 kd/ 6.0 kd” value in assay [5] and in assay [7] were 0.9 and 1, respectively.

B10: P1-068748 (antibody, human IgG1, kappa, V domains shown)
VH: B6 VH with S31H, Y32H
VL: B9 VL
notes: also called P1-068748-6
For the molecule B10, the Kd in [1] was 220 nM; in assay [2] it was 4.3 nM; in [3], 18 nM. Also, the koff in assay [1] turned out to be 0.018 s⁻¹; in assay [2], 0.0036 s⁻¹; in assay [3], 0.012 s⁻¹. The kon in assay [1] is 82000 M⁻¹ s⁻¹; in assay [2], 840000 M⁻¹ s⁻¹; in assay [3], 680000 M⁻¹ s⁻¹. In addition, the “7.4 KD/ 6.0 KD” value turned out to be 50 in assay [4] and 4.1 in assay [6]. The “7.4 kd/ 6.0 kd” value in [5] was determined as 4.8; in [7], 3.4.

B11: P1-068744 (antibody, human IgG1, kappa, V domains shown)
VH: B6 VH with S31E, I50H, D58K, D59Y, Y60E, D104E, Y110E
VL: B9 VL
notes: also called P1-068744-7
As to B11, the Kd was found to be 20 nM in assay [9]; 1100 nM in assay [10]; 4800 nM in assay [1]; 5.1 nM in assay [2]; 64 nM in assay [3]. Moreover, the koff in assay [9] worked out at 0.0046 s⁻¹; in [10] it was 0.036 s⁻¹; in assay [1] it was 0.034 s⁻¹; in [2], 0.0043 s⁻¹; in assay [3], 0.014 s⁻¹. Besides, the kon in [9] stood at 230000 M⁻¹ s⁻¹; in assay [10] it was 35000 M⁻¹ s⁻¹; in assay [1], 7100 M⁻¹ s⁻¹; in assay [2] it was 860000 M⁻¹ s⁻¹; in assay [3] it was 220000 M⁻¹ s⁻¹. Further, the “7.4 KD/ 6.0 KD” value in assay [4] stood at 958; in assay [6], 12.6. The results for the “7.4 kd/ 6.0 kd” value in assay [5] and in assay [7] were 7.9 and 3.2, respectively.
